Data published in patent publication US20200238197A1.

Columns and labels:
[1] = molecular target: Polyclonal human IgG Gammanorm; test: Binder coupled to Praesto Pure45 agarose beads. Mass of injected polyclonal hIgG (Gammanorm) at 10% breakthrough, 6 min residence time (Example 10).
human IgG1 = test: ELISA, IgG1 antibody coated on plate, detection with Strep-Tactin-HRP

Kd (human IgG1) [nM]	Substance	dynamic binding capacity [1] [mg/mL]
	R PROTEIN A	37.4
3.1	Staphylococcus aureus Protein A domain B	
